Experimental findings from the nanobody polyreactivity screen of Harvey et al. (2022) are described below.

The data set is described as follows: yeast display, Sf9 membrane polyspecificity reagent, FACS + sequencing; frameworks hold sequencing errors. The gist of the method: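 Sorting gates, low and high (top ~1%), were placed on anti-HA fluorescence to track expression and on streptavidin fluorescence to track reagent binding. A clone's polyreactivity label is taken from the gate it came out of. The reagent was 10% biotinylated, detergent-solubilized Sf9 membrane, applied for 1 hour at 4 °C to galactose-induced yeast display cells.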
For “QVQLVESGGGLVQAGGSLRLSCAASGFIFFYNAMGWYRQAPGKERELVADISSGGRTYYADSVKGRFTISRDNAKNTVYLQMNSLKPEDTAVYYCAAQSRYWVVRMDYWGQGTQVTVSS”, the “polyreactivity (PSR sort gate)” value is “high polyreactivity”.

With “QVQLVESGGGLVQAGGSLRLSCAASGRIFGVYAMGWYRQAPGKERQLVAAITARGGSTYYADSVKGRFTISRDNAKNTVYLQMNSLKPEDTAVYYCATRLYKRTRTITYGYWGQGTQVTVSS”, the “polyreactivity (PSR sort gate)” value was “high polyreactivity”.

“QVQLVESGGALVQAGGSLRLSCAASGSIFYVYAMGWYRQAPGKEREFVAAITWSGGRTYYADSVKGRFTISRDNAKNTVYLQMNSLKPEDTAVYYCAAGKYRYTYYALEYDYWGQGTQVTVSS”: the “polyreactivity (PSR sort gate)” value was “low polyreactivity”.

On to “QVQLVESGGGLVQAGGSLRLSCAASGRTFQTYAMGWYRQAPGKERELVAAISSDGSTYYADSVKGRFTISRDNAKNTVYLQMNSLKPEDTAVYYCNTDIGDKYYYHVRVDYEYWGQGTQVTLSS”, for which the “polyreactivity (PSR sort gate)” value was “low polyreactivity”.

Consider “QVQLVESGGGLVQAGGSLRLSCAASGRIFVRNAMGWYRQAPGKERELVADITNGGSTNYADSVKGRFTISRDNAKNTVYLQMNSLNPEDTAVYYCAADTLGVYDGDYWGQGTQVTVSS”, for which the “polyreactivity (PSR sort gate)” value is listed as “low polyreactivity”.

For “QVQLVESGGGFVHAGGSLRLSCAASGLIFGKYAMGWYRQAPGKERELVAAITSSGGGTYYADSVKGRFTISRDNAKNTVSLQMNSVKADDTAVYYCATGPDPKYDYRGQGTQVTVSS”, the “polyreactivity (PSR sort gate)” value is “high polyreactivity”.

With “QVQHVESGGGLVQAGGSLRLSCAASGRTFRDYVMGWYRQAPGKETALVAAISTRGASTYYADSVKGRFTISRDNANNTVYLQMNRLKPEDTAVYYCAARSTRRGNEYDYWGQRTQVTVSS”, the “polyreactivity (PSR sort gate)” value was “high polyreactivity”.

As to “QVQLVESGGGLVQAGGSLRLSCAASGITSYGYAMGWYIQAPGKERELVAAISRSGGTTYYADSVKGRFTISRDNAKNTVYLQMNSLKPEDTAVYYCALGKSHRGGGVSKFNYWGQGTQVTVSS”, the “polyreactivity (PSR sort gate)” value was “low polyreactivity”.

In the case of “QVQLVESGGGLVQAGGSLRLSCAATGTFIIYAMGRYRQAPGKERELVATISTGGSTNYADSVKGRFTISRDNAKNTVYLQMNSLKPEDTAVYYCAAEWLYPHDGGYPRPMDYCGQGTQVTVSS”, the “polyreactivity (PSR sort gate)” value was “low polyreactivity”.

As for “QVQLVESGGGLVQAGGSLRLSCAASGRIFGYYAMGWYRQAPGKERELVAAITWSGGSTYYADSVKGRFTISRDNAKNTVYLQMNSLKPEDNAVYYCAAEKRYRKAFDYWGQGTQVTVSS”, the “polyreactivity (PSR sort gate)” value was “high polyreactivity”.

As to “QVQLVETGGGLVQAGGSLRLSCAASGRIFSNYVMGLYRQAPVKERELVAAISGSGGRTYYADSVKGRFTISRDNAKNTVYVQMNSRTPEDTAVYYCAARRSERDRYGGYYYWGQGTQVTVSS”, the “polyreactivity (PSR sort gate)” value is given as “high polyreactivity”.

Take “QVQLVESGGGLVQAGGSLRLSCAASGRTFSANAMGWYRQAPGKERELVATISSGGRTNYADSVKGRFTISRDNAMNTVYLQMNSLKPEDTAVYYCAADFDYAYWDTTYDYWGQGTQVTVSS”: the “polyreactivity (PSR sort gate)” value is “low polyreactivity”.

For the sequence “QVQLVESGGGLVQAGGSLRLSCAATGSTFARYAMGWSRQAPGKERELVAAISRRGGSTYYADSVTGRFTLSRDNAKNTVYLQMNSLNQEDTAVDSCAARYGIISSFEYDYWGQGTQVTVSS”, the “polyreactivity (PSR sort gate)” value was “high polyreactivity”.

As for “QVQLVESGGGLVQAGGSLRLSCAACGRIFNRYAMGWYRQAPGKERELVAAIRYSGGRTYYADSVKGRFTISRDNAKNTVYLQMNSLKPEDTAVYYCAADGQWYYAPFRGGDYENDYWGQGTQVTVSS”, the “polyreactivity (PSR sort gate)” value was “low polyreactivity”.

On to “QVQLVESGGGLVQAGGSLRLSCAASGITFGRYAMGWYRQAPGKERELVAAISWSGGSTYYADSVKGRFTISRDNAKNTVYLQMNSLKPEDTAVYYCATRIRTVAYNYWGQGTQVTVSS”, for which the “polyreactivity (PSR sort gate)” value is “high polyreactivity”.

With “QVQLVESGGGLVQAGGSLRLSCAASGRIFYNYAMGWYRQAPGKERELVAAISGSGGSTYYADSVKGRFTISRDNAKNSVYLQMNSLKPEDTAVYYCSTSGPQYYSRNFDYWGQGTQVTVSS”, the “polyreactivity (PSR sort gate)” value is reported as “low polyreactivity”.

In the case of “QDQLVESGGGLVQEGGSLRLSCAASGRTFISKVMGWYRQAPGKERELVAAISGSSGSTRYADSVKGRFTISRDYAKNTVYLQMNSLKPEDTAVYYCAPRAPWPKWGYYYWGLGTQVTVSS”, the “polyreactivity (PSR sort gate)” value is listed as “high polyreactivity”.

For “QVQLVESGGGLVQAAGILRLSCAASGSIFVTNAKGWYRQAPGKERELVAAISSGGNTNYADSVKGRFTISRDNAKNTVYLQINSLKPVDTAVYYCAKDPDKVDSVDMDYWGHGTQVTVSS”, the “polyreactivity (PSR sort gate)” value is reported as “low polyreactivity”.

Take “QVQLVESGGGLVQAGGSLRISCAASGNTFTRNTMGWYRQAPGKERELVASISLSGASTYYADSVKGRFTISRDNAKNTVYLQMNSLKPEDTAVYYCAARSRQDLEYDYWGQGTQVTVSS”: the “polyreactivity (PSR sort gate)” value was “high polyreactivity”.

On to “QVQLVESGGGLVQAGGSLRLSCAASGRIFYGNAMGWYRQAPGKERELVAAISSGTSTNYADSVKGRFTISRDNAKNTVYLEMNRLKPEDTAVYDCAAGSYSRYLYSLYFDFDYWGQGTQVTVSS”, for which the “polyreactivity (PSR sort gate)” value is on record as “low polyreactivity”.

Consider “QVQLVESGGGLVQAGGSLRLSCAASGFIFHEYAMGWSRQAPGKERELVAAISSGGGSTYYADSVKGRFTISRDNANNTVYLQMNSLKPEDTAVYYCAADATAYSVLTRDYWGQGTQVTVSS”, for which the “polyreactivity (PSR sort gate)” value is listed as “high polyreactivity”.

As for “QVQLVESGGGLVQAGGSLRLSCAASGSIFRINGMGCYRQAPGKERELVADITGGGSTYYADSVKGRFTISRDNAKNTVYLHMNSLKPEDTAVYYCAKDYYRSYGREDYWGQGTQVTVSS”, the “polyreactivity (PSR sort gate)” value is reported as “low polyreactivity”.

Take “QVHLVESGGGLFQAGGSLSISSASSGRTFYWYPMGWYRQAPGKERELVAAITGMGTRTYYADSVKGRFTISRDNAKNTDYLQMNSLKPEDTAVYYCNTRYYGGFDSWGQGTQVTVSS”: the “polyreactivity (PSR sort gate)” value is given as “high polyreactivity”.

“QVQLVESGGGLVQAGGSLRLSCAASGSTFYIYAMVWYRQAPGKERELVAAITGTGGSTYYADSVKGRFTISRDNAKNSVYLQMNSLKPEDTAVYYCAVGFGYYYKYGYWGQGTQVTVSS”: the “polyreactivity (PSR sort gate)” value is listed as “low polyreactivity”.

As for “QVQLVESGGGLVQAGGSHRLSCAASGIIFWRYAMGWYRQAPGKERELVAGITSRGGSTYYADSVKGRFTISRDNAKNTVYLQMNSLKPEDTAVYFCNADWFGQLWWGVDYWGQGTQVTVSS”, the “polyreactivity (PSR sort gate)” value was “high polyreactivity”.

Consider “QVQLVESGGGLVQAGGSLRLSCASSGRNFTRNTMGWYRQAPGKERELVAAISGRGGSTYYADSVKGRFTISRDNAMKTVYLQMNSLKPEDTAVDYCAADGVYRGGYDYWGQGTQVTVSS”, for which the “polyreactivity (PSR sort gate)” value is “high polyreactivity”.

On to “QVHLVESGGGLVQAGGSLRLSCAASGGIFFPNAMGWYRQAPWKERELVAAISWSAGSTYYADSVKGRFTISRDNAKNTVYLELNSVKPEDTAVYYCAAAGSKNTVLYGYYYWGQGTQVTVSS”, for which the “polyreactivity (PSR sort gate)” value is “low polyreactivity”.

In the case of “QVQLVESPGGLVQAGGSLRLSCAASGSIFGSYAMGWYRQEPGKEREFVAVITSASTNYADSVKGRFTISRDNAKNTVNLQLNSLKPEDTAVYYCNKRGTRIRRTNKSHGVDYWGQGTQVTVSS”, the “polyreactivity (PSR sort gate)” value is recorded as “low polyreactivity”.

Consider “QVQLVESGGGLVQAGGSLRLSCAASGSIFDRYAMGWYRQAPGKDRELVAAITWSGGSTRYADSVNGRFTISRDNAKNTVYLQMNILKPEDTAVYYCPASSTRWKVYYWGQGTQVTVSS”, for which the “polyreactivity (PSR sort gate)” value is reported as “high polyreactivity”.

As for “QVQLVESGGGLVQAGGSLRLSCAASGFTFYKNTMGWYRQAPGKVRELGAAISSSGSSTYYADSVKGRFTISRDNAKTTVYLQMNSLKPEDTAVYYCAAVSHYPAGYDYWGQGTQVTVSS”, the “polyreactivity (PSR sort gate)” value was “high polyreactivity”.

For the sequence “QVQLVESGGGLVQAGGSLRLSCAASGNTFYKNTMGWYRQAPGKERELVAAISQRGTRTYYADSVKGRFTISRDNAKNSVYLQLYSLNPEDTAVYYCATDLSQVGFDYWGQGTQVTVSS”, the “polyreactivity (PSR sort gate)” value is reported as “high polyreactivity”.

As for “QVQLVESVGGLVQAGGSLRLSCAASGRTFYTYAMGWYRQAPGKERELVAAISSSGSTYYADSVKGRFTISRDNAKKTVYLQMNSLKPEDTAVYYCNARTSRYRRGGDSWGQGTQVTVSS”, the “polyreactivity (PSR sort gate)” value is “high polyreactivity”.

Consider “QVQLVESGGGLVQAGGRLSLSCSASGSIFEQKAMGWYRKAPGKEREFVATISDGGGTYYADSVKGRFTISRDNAKNTVYLQINSLKPEDNAVYYCAATFGGSVFVYDYWGQGTQVTLSS”, for which the “polyreactivity (PSR sort gate)” value is on record as “low polyreactivity”.

As for “QVQLVESGGGLVQAGGSLRLSCAASGRTLGKNAMGWYRQAPGKEREFVAAISRSGSRTYYADSVKGRFTISRDNEKYTVYLQMNSLKPEDTAVYYCAADGSGHSQRYDYWGQGTQVTVSS”, the “polyreactivity (PSR sort gate)” value is “high polyreactivity”.

On to “QVQLVESGGGLVQAGGSLRLSCAASGFTSRRYVMGWYRQAPGKERELVAAISSRGTSTYYADSVKGRFTISRDNAKNTVYLKMNSLKPEDTAVYYCAAVIRGRTRWLKYDYWGQGTQGTVSS”, for which the “polyreactivity (PSR sort gate)” value is “high polyreactivity”.

For the sequence “QVQLVESGGCLVQAGGSLRLRCAASGRIFLRYDMGWYRQAPGKERELVAAISSGASTYYADSVKGRFTISRDNAKNTVYLQMNSLKPEDTAVFYCAVDRPYYYGYRMDYWGQGSQVTVSS”, the “polyreactivity (PSR sort gate)” value is “low polyreactivity”.

For the sequence “QVQLVESGGGLVQAGGSLRLSCAASGFTFYSYAMGWYRQAPGKERELVATITASGGSTYYADSVKGRFTISRDNAKNSVYLQMISLKPEDTAVYYCAAYHPHGFDYYRYYYWGQGTQVTVSS”, the “polyreactivity (PSR sort gate)” value is reported as “high polyreactivity”.

Consider “QVQLVESGGGLVQAGGSLRLSCAASGSIFPLSAMGWYRQAPGKERELVAAITWRGGSTYYADSVKGRFTISRDNAKNTVYLQMNSLKPEDTAVYYCNRDLVPRFDYWGQGTQVTVSS”, for which the “polyreactivity (PSR sort gate)” value is reported as “low polyreactivity”.

On to “QVQLVESGGGLVQAGGSLRFSCAASGSIFIANAMGWYRQAPGQERALVAAIDSGGSTNYADSVKGRFTISRDNAKNTVYLQMNSLKPEDTAVYYCADDGTLTAPGGDYWGQGTQVTVSS”, for which the “polyreactivity (PSR sort gate)” value was “high polyreactivity”.

With “QVQLVESGGGLVQAGGSLRLSCAASGRTFYGNAMGWYRQAPGKERELVAGITRGGSTYYADSVKGRFTISRDNAKNTVYLQMNSLKPEDTAVYYCAATRYYSWGSRGGYWGQGTQVTVSS”, the “polyreactivity (PSR sort gate)” value was “high polyreactivity”.

With “QVQLVESGGGLVQAGGSLRLSCAASGSTFHRYAMGWSRQAPGKERELVATINLNTGSTYADSVKGRFTISRDNAKNTVYVQMNSLKPEDTAVYYCAAYGRWPFTWYNYWGQGTQVTVSS”, the “polyreactivity (PSR sort gate)” value is given as “low polyreactivity”.
